Values quoted from earlier work in paper PMC8162889.

Molecular target: EphA2 ECD (Homo sapiens) (UniProt P29317)
Assay: MST

Sequence of UniProt P29317 (P29317 24-537): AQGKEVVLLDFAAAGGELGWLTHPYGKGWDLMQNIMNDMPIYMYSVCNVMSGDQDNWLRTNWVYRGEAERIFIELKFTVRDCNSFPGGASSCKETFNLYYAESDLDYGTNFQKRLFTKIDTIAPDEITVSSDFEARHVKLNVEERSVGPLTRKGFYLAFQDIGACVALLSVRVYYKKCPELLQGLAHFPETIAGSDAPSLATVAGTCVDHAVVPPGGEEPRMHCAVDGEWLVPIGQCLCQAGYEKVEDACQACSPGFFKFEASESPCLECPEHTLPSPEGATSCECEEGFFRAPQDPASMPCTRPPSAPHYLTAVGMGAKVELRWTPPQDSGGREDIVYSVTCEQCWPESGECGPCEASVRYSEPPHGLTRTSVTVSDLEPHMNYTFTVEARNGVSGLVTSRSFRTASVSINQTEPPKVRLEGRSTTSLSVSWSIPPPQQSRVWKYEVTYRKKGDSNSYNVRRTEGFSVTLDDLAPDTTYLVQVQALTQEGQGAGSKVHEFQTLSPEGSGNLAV

Kd: 1.2 nM
Substance: Progranulin (from UniProt P28799)
